Measurements from the RNAGym collection of RNA variant scans (doi:10.1093/molbev/msab373).

B1: Azoarcus group I ribozyme (parent)
chain: GUGCCUUGCGCCGGGAAACCACGCAAGGGAUGGUGUCAAAUUCGGCGAAACCUAAGCGCCCGCCCGGGCGUAUGGCAACGCCGAGCCAAGCUUCGGCGCCUGCGCCGAUGAAGGUGUAGAGACUAGACGGCACCCACCUAAGGCAAACGCUAUGGUGAAGGCAUAGUCCAGGGAGUGGCGAAAGUCACACAAACCGG

Variants of: B1
Assay: reverse-splicing fitness (ratio to wild type); higher = more active; in vitro selection; Mg2+ level not given
In short: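 An in vitro group I ribozyme library with randomized positions was T7-transcribed and gel-purified. In triplicate, 10 pmol RNA in EPPS pH 7.5 was reacted with 50 pmoles of a 30-nt RNA substrate for 1 h at 37 °C across several added MgCl2 levels (1–48 mM), then stopped with EDTA. Products were reverse transcribed from a substrate-complementary primer, PCR-amplified and sequenced (HiSeq 4000). Fitness is a variant's read proportion after selection over that before, normalised to wild type.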
In the case of C82A A120G A145U C169A U176C, the reverse-splicing fitness is reported as 0.00947. For C82A A120G A145U C169A U176A, the reverse-splicing fitness was 0.0104. C82A A120G A145U C169A U176G gave a reverse-splicing fitness of 0.00321. C82A A120U A145U C150G C169A U176A gave a reverse-splicing fitness of 0.00324. For C82A A120U A145U C150G C169A U176C, the reverse-splicing fitness was 0.00214. Variant C82A A120U A145U C150G C169A U176G has a reverse-splicing fitness of 0.00201. C82A A120U A145U C150U C169A U176G showed a reverse-splicing fitness of 0.00171. For C82A A120U A145U C150U C169A U176A, the reverse-splicing fitness was 0.00275. For C82A A120U A145U C150U C169A U176C, the reverse-splicing fitness was 0.00272. With C82A A120G A145U C169U the reverse-splicing fitness was 0.0145. Variant C82A A120G A145U C169G has a reverse-splicing fitness of 0.0204. C82A A120G A145U C169A showed a reverse-splicing fitness of 0.0137. C82A A120U A145G C150U showed a reverse-splicing fitness of 0.116. In the case of C82A A120U A145G C150A, the reverse-splicing fitness is reported as 0.0231. C82A A120U A145G C150G gave a reverse-splicing fitness of 0.0192. With C82A A120U A145G C150U C169G the reverse-splicing fitness was 0.00684. Variant C82A A120U A145G C150U C169A has a reverse-splicing fitness of 0.00691. Variant C82A A120U A145G C150U C169U has a reverse-splicing fitness of 0.00646. In the case of C82A A120G C150U C169A U176C, the reverse-splicing fitness is reported as 0.0163. Work on C82A A120G C150U C169A U176A yielded a reverse-splicing fitness of 0.0169. For C82A A120G C150U C169A U176G, the reverse-splicing fitness was 0.00471. For C82A A120U A145G C150U C169A U176G, the reverse-splicing fitness was 0.00195. C82A A120U A145G C150U C169A U176C gave a reverse-splicing fitness of 0.00287. C82A A120U A145G C150U C169A U176A showed a reverse-splicing fitness of 0.00597. C82A A120U A145G C150G C169A U176G showed a reverse-splicing fitness of 0.00515. C82A A120U A145G C150G C169A U176C showed a reverse-splicing fitness of 0.0082. Work on C82A A120U A145G C150G C169A U176A yielded a reverse-splicing fitness of 0.0135. C82A A120U A145C C150U C169G U176G showed a reverse-splicing fitness of 0.00196. In the case of C82A A120U A145C C150U C169G U176A, the reverse-splicing fitness is reported as 0.00237. With C82A A120U A145C C150U C169G U176C the reverse-splicing fitness was 0.00201. Work on C82A A120U A145C C169A U176A yielded a reverse-splicing fitness of 0.00193. C82A A120U A145C C169A U176C showed a reverse-splicing fitness of 0.0019. C82A A120U A145C C169A U176G gave a reverse-splicing fitness of 0.00126. Work on C82A A120U A145G C150A C169U U176A yielded a reverse-splicing fitness of 0.0044. For C82A A120U A145G C150A C169U U176C, the reverse-splicing fitness was 0.00385. Variant C82A A120U A145G C150A C169U U176G has a reverse-splicing fitness of 0.003. For C82A A120G A145U C150U U176C, the reverse-splicing fitness was 0.0158. Work on C82A A120G A145U C150U U176G yielded a reverse-splicing fitness of 0.00531. C82A A120G A145U C150U U176A gave a reverse-splicing fitness of 0.0108. Variant C82A A120U A145C C150G C169G has a reverse-splicing fitness of 0.0026. With C82A A120U A145C C150G C169A the reverse-splicing fitness was 0.00259. Work on C82A A120U A145C C150G C169U yielded a reverse-splicing fitness of 0.00298. For C82A A120G A145U C150G C169U, the reverse-splicing fitness was 0.00862. In the case of C82A A120G A145U C150G C169G, the reverse-splicing fitness is reported as 0.00902. C82A A120G A145U C150G C169A showed a reverse-splicing fitness of 0.00891. C82A A120U gave a reverse-splicing fitness of 0.154. C82A A120G A145U C150U gave a reverse-splicing fitness of 0.0167. Work on C82A A120G A145U C150G yielded a reverse-splicing fitness of 0.00781. Work on C82A A120G C150G C169U U176G yielded a reverse-splicing fitness of 0.00654. In the case of C82A A120G C150G C169U U176C, the reverse-splicing fitness is reported as 0.0133. For C82A A120G C150G C169U U176A, the reverse-splicing fitness was 0.0119. With C82A A120U A145U C150G C169U U176A the reverse-splicing fitness was 0.0025. C82A A120U A145U C150G C169U U176C showed a reverse-splicing fitness of 0.00262. With C82A A120U A145U C150G C169U U176G the reverse-splicing fitness was 0.0021. Variant C82A A120G C150A U176G has a reverse-splicing fitness of 0.00837. C82A A120G C150A U176C showed a reverse-splicing fitness of 0.0171. C82A A120G C150A U176A showed a reverse-splicing fitness of 0.0118. C82A A120U A145C C150U C169U gave a reverse-splicing fitness of 0.00313. With C82A A120U A145C C150U C169G the reverse-splicing fitness was 0.00276. For C82A A120U A145C C150U C169A, the reverse-splicing fitness was 0.00197. For C82A A120U A145U C150U C169U U176A, the reverse-splicing fitness was 0.00274. Variant C82A A120U A145U C150U C169U U176G has a reverse-splicing fitness of 0.00221. For C82A A120U A145U C150U C169U U176C, the reverse-splicing fitness was 0.00354. C82A A120U A145C C169A gave a reverse-splicing fitness of 0.00194. For C82A A120U A145C C169U, the reverse-splicing fitness was 0.00406. C82A A120U A145C C169G showed a reverse-splicing fitness of 0.0041. With C82A A120U A145G C169U U176C the reverse-splicing fitness was 0.00364. For C82A A120U A145G C169U U176G, the reverse-splicing fitness was 0.00139. C82A A120U A145G C169U U176A gave a reverse-splicing fitness of 0.00354. Work on C82A A120U A145U C150U C169U yielded a reverse-splicing fitness of 0.00442. C82A A120U A145U C150U C169A gave a reverse-splicing fitness of 0.00226. Variant C82A A120U A145U C150U C169G has a reverse-splicing fitness of 0.00375. Work on C82A A120G C150G C169A U176C yielded a reverse-splicing fitness of 0.0109. Variant C82A A120G C150G C169A U176A has a reverse-splicing fitness of 0.0116. C82A A120G C150G C169A U176G showed a reverse-splicing fitness of 0.00619. With C82A A120U A145C C150A C169G the reverse-splicing fitness was 0.00223. Work on C82A A120U A145C C150A C169A yielded a reverse-splicing fitness of 0.00256. For C82A A120U A145C C150A C169U, the reverse-splicing fitness was 0.00225. For C82A A120G C150A C169G U176C, the reverse-splicing fitness was 0.0267. With C82A A120G C150A C169G U176G the reverse-splicing fitness was 0.00524. C82A A120G C150A C169G U176A showed a reverse-splicing fitness of 0.0195. Work on C82A A120G C150U C169U U176A yielded a reverse-splicing fitness of 0.0231. C82A A120G C150U C169U U176G showed a reverse-splicing fitness of 0.0068. C82A A120G C150U C169U U176C showed a reverse-splicing fitness of 0.0192.
